US20100247515A1 (DOMANTIS, published 2010)
Residue numbers refer to the chain shown, from its start.

B1: DOM1h-131-203 (other)
VH: EVQLWESGGGLVQPGGSLRLSCAASGFTFAHETMVWVRQAPGKGLEWVSHIPPDGQDPFYADSVKGRFTISRDNSKNTLYLQMNSLRAEDTAVYYCALLPKRGPWIDYWGQGTLVTVSS
B2: DOM1h-131-204 (other)
VH: B1 VH with W5S, K101N, I106F

Biological target: T1, TNFR1 on MRC-5 fibroblasts (UniProt P19438 30-455, limits assumed)
T1 sequence (looked up): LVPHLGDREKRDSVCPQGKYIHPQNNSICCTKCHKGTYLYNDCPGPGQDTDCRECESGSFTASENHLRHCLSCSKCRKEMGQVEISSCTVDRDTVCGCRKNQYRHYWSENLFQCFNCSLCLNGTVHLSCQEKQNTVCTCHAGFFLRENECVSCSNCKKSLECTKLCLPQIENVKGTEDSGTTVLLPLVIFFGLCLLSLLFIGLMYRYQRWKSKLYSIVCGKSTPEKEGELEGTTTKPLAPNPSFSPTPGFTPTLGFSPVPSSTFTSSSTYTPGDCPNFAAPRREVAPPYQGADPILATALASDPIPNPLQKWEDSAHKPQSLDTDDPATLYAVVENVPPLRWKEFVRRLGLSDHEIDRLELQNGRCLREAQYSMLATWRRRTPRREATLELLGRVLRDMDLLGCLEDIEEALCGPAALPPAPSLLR
Assay: cell-based or functional assay

Binder | ND50, MRC-5 cell-based assay
B1 | 2.28 nM
B2 | 1.89 nM
